No end group written: not given here. *: point of attachment. 5FAM = O=C1OC2(c3ccc(O)cc3Oc3cc(O)ccc32)c2ccc(C(=O)*)cc21; 5‑FAM = 5-carboxyfluorescein label
B1: 5-FAM-KIF4A WT(1206-1228) peptide (peptide)
peptide: 5FAM-PGKKKKRALASNTSFFSGCSPIE
notes: KIF4A, chromokinesin, residues 1206-1228 (C-terminal tail SLiM); also called 5-FAM-KIF4A(1206-1228); 5-FAM labelled KIF4A; source: synthetic peptide; bought: Genscript
B2: 5-FAM NCAPD2-C(1376-1398) peptide (peptide)
peptide: 5FAM-SAEMTEDETPKKTTPILRASARR
notes: NCAPD2, human condensin I HAWK subunit, residues 1376-1398 (C-terminal SLiM); also called 5-FAM-NCAPD2(1376-1398); F-NCAPD2-C(1376-1398); source: synthetic peptide; bought: Genscript
B3: 5-FAM Sgo1(503-523) peptide (peptide)
peptide: TRTKKLFKNAIVNNLSDENST
modifications: also: 5-FAM label, end not given here
notes: Sgo1, yeast shugoshin, residues 503-523, SLiM; also called Sgo peptide; source: synthetic peptide; bought: Genscript
B4: 5-FAM Lrs4(317-337) peptide (peptide)
peptide: {5‑FAM}-NKKRKLTKQRIATLPNSDEEL
notes: also called 5-FAM Lrs4(317-339); Lrs4 peptide; source: synthetic peptide; bought: Genscript

How the values were obtained:
[1] = target: T1, human condensin I pentamer, wild type (human, UniProt O95347 1-1197; Q9NTJ3 1-1288; Q15003 1-741; Q15021 1-1401; Q9BPX3 1-1015); test: fluorescence polarisation; 100 nM 5-FAM labelled peptide, protein or complex titrated; 20 mM HEPES pH 8, 150 mM KCl, 2.5 mM MgCl, 5% glycerol, 1 mM DTT; room temperature, 15 min; details: both partners purified
T1 construct: SMC2, human condensin I subunit; SMC4, human condensin I subunit; NCAPH, human condensin I kleisin subunit; NCAPD2, human condensin I HAWK subunit; NCAPG, human condensin I HAWK subunit; The complex carries a strep tag; also called CI; CIWT; source: Sf9 insect cells (baculovirus), co-expressed, purified (StrepTrap, heparin, SEC); copies: + + + +

yeast condensin pentamer = target: T2, yeast condensin pentamer (S. cerevisiae, UniProt P38989 1-1170; Q12267 1-1418; P38170 1-754; Q06156 1-1176; Q06680 1-1035); test: as above; details: both partners purified
T2 construct: Smc2, S. cerevisiae condensin subunit; Smc4, S. cerevisiae condensin subunit; Brn1, S. cerevisiae condensin kleisin subunit; Ycs4, S. cerevisiae condensin HAWK subunit; Ycg1, S. cerevisiae condensin HAWK subunit; also called ScCondensin Pentamer; pentameric yeast condensin; source: purified as described previously (Martínez-García et al, 2022; Lee et al, 2020); copies: + + + +

Row | Binder | Kd (yeast condensin pentamer) [µM] | also measured
1 | B1 | – | Kd [1]: 17.7 µM
2 | B2 | – | binding result [1]: binds
3 | B3 | 4 ± 0.3 | –
4 | B4 | 12.9 ± 2.5 | –
